As a reminder, the stoichiometry N is a count of units in the complex or per binding partner.

The results in this text go back to doi:10.1101/2021.06.20.449167 (bioRxiv, 2021).

First the molecules themselves.
B1: atp5f1b (atp5b) 3'UTR-50A (ssRNA)
RNA: GGGGGGGUCUUUGUCCUCUGUACUGUCUCUCUCCUUGCCCCUAACCCAAAAAGCUUCAUUUUUCUGUGUAGGCUGCACAAGAGCCUUGAUUGAAGAUAUAUUCUUUCUGAACAGUAUUUAAGGUUUCCAAUAAAAUGUACACCCCUCAGAAAAAAAAAAAAAAAAAAAAAAAAAAAAAAAAAAAAAAAAAAAAAAAAAAAAGCGGCCGC
B2: mrpl41 5'UTR (ssRNA)
RNA: GGGGCUCUUGCUGCGACGCAGCGGUCGGAAGCGGAGCAAGGUCGAGGCCGGGUUGGCGCCGGAGCCGGGGCCGCUUGGAGCUCGUGUGGGGUCUCCGGUCCAGGGCGCGGCGCGGCCGC
B3: Fy-2 (Ppp1r21), untagged subunit of the reconstituted FERRY complex (natural protein, human, UniProt Q6ZMI0 1-780, looked up)
chain: MASAELQGKYQKLAQEYSKLRAQNQVLKKGVVDEQANSAALKEQLKMKDQSLRKLQQEMDSLTFRNLQLAKRVELLQDELALSEPRGKKNKKSGESSSQLSQEQKSVFDEDLQKKIEENERLHIQFFEADEQHKHVEAELRSRLATLETEAAQHQAVVDGLTRKYMETIEKLQNDKAKLEVKSQTLEKEAKECRLRTEECQLQLKTLHEDLSGRLEESLSIINEKVPFNDTKYSQYNALNVPLHNRRHQLKMRDIAGQALAFVQDLVTALLNFHTYTEQRIQIFPVDSAIDTISPLNQKFSQYLHENASYVRPLEEGMLHLFESITEDTVTVLETTVKLKTFSEHLTSYICFLRKILPYQLKSLEEECESSLCTSALRARNLELSQDMKKMTAVFEKLQTYIALLALPSTEPDGLLRTNYSSVLTNVGAALHGFHDVMKDISKHYSQKAAIEHELPTATQKLITTNDCILSSVVALTNGAGKIASFFSNNLDYFIASLSYGPKAASGFISPLSAECMLQYKKKAAAYMKSLRKPLLESVPYEEALANRRILLSSTESREGLAQQVQQSLEKISKLEQEKEHWMLEAQLAKIKLEKENQRIADKLKNTGSAQLVGLAQENAAVSNTAGQDEATAKAVLEPIQSTSLIGTLTRTSDSEVPDVESREDLIKNHYMARIVELTSQLQLADSKSVHFYAECRALSKRLALAEKSKEALTEEMKLASQNISRLQDELTTTKRSYEDQLSMMSDHLCSMNETLSKQREEIDTLKMSSKGNSKKNKSR
B4: His6-Fy-5 (Gatd1) (natural protein, human, UniProt Q8NB37 1-220, looked up)
chain: MASERLPNRPACLLVASGAAEGVSAQSFLHCFTMASTAFNLQVATPGGKAMEFVDVTESNARWVQDFRLKAYASPAKLESIDGARYHALLIPSCPGALTDLASSGSLARILQHFHSESKPICAVGHGVAALCCATNEDRSWVFDSYSLTGPSVCELVRAPGFARLPLVVEDFVKDSGACFSASEPDAVHVVLDRHLVTGQNASSTVPAVQNLLFLCGSRK
B5: His6-Fy-4 (Cryzl1) (natural protein, human, UniProt O95825 1-349, looked up)
chain: MKGLYFQQSSTDEEITFVFQEKEDLPVTEDNFVKLQVKACALSQINTKLLAEMKMKKDLFPVGREIAGIVLDVGSKVSFFQPDDEVVGILPLDSEDPGLCEVVRVHEHYLVHKPEKVTWTEAAGSIRDGVRAYTALHYLSHLSPGKSVLIMDGASAFGTIAIQLAHHRGAKVISTACSLEDKQCLERFRPPIARVIDVSNGKVHVAESCLEETGGLGVDIVLDAGVRLYSKDDEPAVKLQLLPHKHDIITLLGVGGHWVTTEENLQLDPPDSHCLFLKGATLAFLNDEVWNLSNVQQGKYLCILKDVMEKLSTGVFRPQLDEPIPLYEAKVSMEAVQKNQGRKKQVVQF
B6: Fy-3 (C12orf4), untagged subunit of the recombinant FERRY and GST-FERRY complexes (natural protein, human, UniProt Q9NQ89 1-552, looked up)
chain: MKKNRERFCNREREFVYKFKVGSQCLELRVPLKFPVQENASHLHGRLMLLHSLPCFIEKDLKEALTQFIEEESLSDYDRDAEASLAAVKSGEVDLHQLASTWAKAYAETTLEHARPEEPSWDEDFADVYHDLIHSPASETLLNLEHNYFVSISELIGERDVELKKLRERQGIEMEKVMQELGKSLTDQDVNSLAAQHFESQQDLENKWSNELKQSTAIQKQEYQEWVIKLHQDLKNPNNSSLSEEIKVQPSQFRESVEAIGRIYEEQRKLEESFTIHLGAQLKTMHNLRLLRADMLDFCKHKRNHRSGVKLHRLQTALSLYSTSLCGLVLLVDNRINSYSGIKRDFATVCQECTDFHFPRIEEQLEVVQQVVLYARTQRRSKLKESLDSGNQNGGNDDKTKNAERNYLNVLPGEFYITRHSNLSEIHVAFHLCVDDHVKSGNITARDPAIMGLRNILKVCCTHDITTISIPLLLVHDMSEEMTIPWCLRRAELVFKCVKGFMMEMASWDGGISRTVQFLVPQSISEEMFYQLSNMLPQIFRVSSTLTLTSKH

In one data set the target is Fy-1 (TBCK);Fy-2 (PPP1R21);Fy-3 (C12orf4);Fy-4 (CRYZL1);Fy-5 (GATD1) (Homo sapiens;Homo sapiens;Homo …, UniProt Q8TEA7;Q6ZMI0;Q9NQ89;O95825;Q8NB37 1-893;1-780;1-552;1-349;1-220, ||||). The experiment in a line: EMSA.
Regarding B1, the binding result is “no binding”.
Same read-out and setting: the same measure for B2: “no binding”.

In a further data set the target is T1, His6-Fy-1 (Tbck), subunit of the reconstituted FERRY complex (human, UniProt Q8TEA7 1-893).
T1 sequence (looked up): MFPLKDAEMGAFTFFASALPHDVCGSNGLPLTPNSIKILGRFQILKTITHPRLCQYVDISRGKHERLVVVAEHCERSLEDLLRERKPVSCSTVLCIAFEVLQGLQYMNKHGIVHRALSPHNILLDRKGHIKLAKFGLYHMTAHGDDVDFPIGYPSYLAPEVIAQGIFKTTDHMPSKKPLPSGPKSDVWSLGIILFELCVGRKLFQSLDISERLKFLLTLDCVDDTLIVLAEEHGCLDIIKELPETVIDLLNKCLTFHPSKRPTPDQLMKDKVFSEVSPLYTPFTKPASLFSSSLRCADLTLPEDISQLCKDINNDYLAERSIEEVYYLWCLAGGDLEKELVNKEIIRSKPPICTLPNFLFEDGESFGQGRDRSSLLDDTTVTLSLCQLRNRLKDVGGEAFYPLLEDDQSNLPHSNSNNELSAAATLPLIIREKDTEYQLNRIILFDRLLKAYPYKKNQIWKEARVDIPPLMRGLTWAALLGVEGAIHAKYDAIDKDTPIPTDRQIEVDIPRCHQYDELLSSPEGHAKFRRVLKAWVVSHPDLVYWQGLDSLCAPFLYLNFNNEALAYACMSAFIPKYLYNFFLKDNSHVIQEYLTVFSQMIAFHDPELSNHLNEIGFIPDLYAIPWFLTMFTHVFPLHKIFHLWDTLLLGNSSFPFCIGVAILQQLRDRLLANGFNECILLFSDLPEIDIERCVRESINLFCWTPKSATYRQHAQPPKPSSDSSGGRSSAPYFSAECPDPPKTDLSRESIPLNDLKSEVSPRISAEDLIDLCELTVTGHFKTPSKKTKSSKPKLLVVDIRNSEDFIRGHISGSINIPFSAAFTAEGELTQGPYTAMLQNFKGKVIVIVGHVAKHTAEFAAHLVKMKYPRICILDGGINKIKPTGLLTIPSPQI
As to the kind of experiment: SEC.
Consider B3, for which the “stoichiometry N” value is 2.
Same read-out and setting: next, B4: 4; B5: 2.
The same measure, in the same setting: next, B6: 1.
